Reference: patent US20240247301A1, “DIAGNOSTIC ASSAY FOR CLASSIC INBORN GALACTOSEMIA” (Ohio State Innovation Foundation, priority 2022, published 2024)

Key:
[1] = Duarte GalT-YidA coupled assay (malachite green); format: biochemical; conditions: recombinant Duarte GalT, substrate Gal-1-P
Protocol: The assay contained 25 mM 4-(2-hydroxyethyl)-1-piperazineethanesulfonic acid (HEPES) (pH 8.0), 3 mM MgCl2, 2 mM DTT, 1 mM UDP-glucose (Sigma-Aldrich), 3 mM YidA, and varying amounts of His6-tagged Duarte GalT: 0.25 mM GalT for ≤0.1-mM Gal-1P, and 0.1 mM GalT for ≥0.1-mM Gal-1P (Table 3). […] These 2-μL aliquots were added to a 384-well plate which were pre-dispensed to test wells 18 μL of water and 5 μL of malachite green reagent. […] These specific time courses (using four time points; Table 3) and the appropriate dilutions were performed to maintain product formation in the linear range. To determine the Km and kcat values, the initial velocity calculated at each substrate concentration was subject to the Michaelis-Menten curve-fitting option in Kaleidagraph (Synergy Software).

[2] = Duarte GalT variant; cited from earlier work
[3] = YihX kinetic studies (malachite green phosphate assay); format: biochemical, Salmonella; conditions: Glc 1-P versus 6-P-F-Asp
From the text: Top panel reproduced from Monroy, et al., 2013.
The Km and kcat values are listed here with their respective curve-fit errors (see summary in Table 4).
Salmonella YihX was purified after overexpression in E. coli BL21 (DE3) pLysS cells. His6-YihX was purified under denaturing conditions using immobilized metal-affinity chromatography. Following purification, YihX was refolded by stepdown dialysis to remove the denaturant. […] YihX offers the basis for a simpler and more sensitive assay to diagnose classic galactosemia.

[4] = earlier qualitative observation (Kuznetsova et al. 2006); cited from earlier work
[5] = YidA substrate-specificity test, initial velocity for Glc-1-P versus Gal-1-P; format: biochemical, Salmonella; conditions: 3 mM Glc-1-P or 3 mM Gal-1-P, 3 mM MgCl2
From the text: FIGS. 1A-B show substrate-recognition bias of YidA for Glc-1-P over Gal-1P. […] The data represent mean±standard error determined from two independent trials. […] The Km and kcat values listed represent the mean±standard error from two independent trials.
Nearly homogeneous recombinant Salmonella YidA by overexpressing it in E. coli SixPack cells were obtained (Lipinszki et al. 2018) (FIG. 3A). N-terminal fusions with a small ubiquitin-like modifier (SUMO) domain were engineered to enhance solubility (Marblestone et al. 2006) and a His6 tag to facilitate affinity purification (FIG. 3A). To measure the phosphatase activity of YidA, malachite green, a cationic dye that forms with free orthophosphate and molybdate a green-colored complex (Abs620) was used; this assay can measure nanomolar concentrations of orthophosphate (FIG. 4). Since YidA is a Mg^2+-dependent phosphatase, its activity with Glc-1-P in the presence of 0-5 mM MgCl2 was first tested and determined that 3 mM MgCl2 was optimal (FIG. 5).

B1: Duarte GalT: recombinant His6-tagged Duarte variant of galactose-1-phosphate uridylyl transferase, clone from Addgene (GALTA-c001) (protein, UniProt P07902 1-379, looked up, variant N314D)
Galactose-1-phosphate …: MSRSGTDPQQRQQASEADAAAATFRANDHQHIRYNPLQDEWVLVSAHRMKRPWQGQVEPQLLKTVPRHDPLNPLCPGAIRANGEVNPQYDSTFLFDNDFPALQPDAPSPGPSDHPLFQAKSARGVCKVMCFHPWSDVTLPLMSVPEIRAVVDAWASVTEELGAQYPWVQIFENKGAMMGCSNPHPHCQVWASSFLPDIAQREERSQQAYKSQHGEPLLMEYSRQELLRKERLVLTSEHWLVLVPFWATWPYQTLLLPRRHVRRLPELTPAERDDLASIMKKLLTKYDNLFETSFPYSMGWHGAPTGSEAGANWDHWQLHAHYYPPLLRSATVRKFMVGYEMLAQAQRDLTPEQAAERLRALPEVHYHLGQKDRETATIA
- increase in kcat/Km, YidA-based assay versus PGM-G6PDH coupled assay [1]: ~2.5 fold
- activity relative to wild-type GalT [2]: ~25%

B2: YihX: recombinant Salmonella HAD-like sugar-phosphate phosphatase, overexpressed in E. coli BL21 (DE3) pLysS cells and refolded (protein, listed as Salmonella typhimurium)
chain: MLYIFDLGNVIVDIDFNRVLGVWSDLSRVPLASLKQKFTMGETFHQHERGEITDEAFAEAFCHEMALSLSYEQFAHGWQAVFVGLRPEVIAIMHKLREQGHRVVVLSNTNRLHTHFWPEEYPEVRAAADHIYLSQDLGMRKPEARIYQHVLQKEGFSAADAVFFDDNADNIEGANQLGITSILVKDKATIPDYFAKLLC
modifications: Description of sequence: YihX
- substrate hydrolysis (qualitative) [3]: hydrolyzes glucose 1-phosphate (Glc 1-P) but not 6-P-F-Asp

B3: E. coli YidA: E. coli YidA phosphatase documented in a previous study (Kuznetsova et al. 2006) (protein, UniProt P0A8Y5 1-270, looked up)
Sugar phosphatase YidA: MAIKLIAIDMDGTLLLPDHTISPAVKNAIAAARARGVNVVLTTGRPYAGVHNYLKELHMEQPGDYCITYNGALVQKAADGSTVAQTALSYDDYRFLEKLSREVGSHFHALDRTTLYTANRDISYYTVHESFVATIPLVFCEAEKMDPNTQFLKVMMIDEPAILDQAIARIPQEVKEKYTVLKSAPYFLEILDKRVNKGTGVKSLADVLGIKPEEIMAIGDQENDIAMIEYAGVGVAMDNAIPSVKEVANFVTKSNLEDGVAFAIEKYVLN
- dephosphorylation of Gal-1-P compared to Glc-1-P (qualitative) [4]: negligible dephosphorylation of Gal-1-P compared to Glc-1-P

B4: YidA: recombinant Salmonella sugar-phosphate phosphatase of the HAD superfamily, overexpressed in E. coli SixPack cells; SUMO tag removed unless stated (protein, listed as Salmonella typhimurium)
chain: MAIKLIAIDMDGTLLLPDHTISPAVKNAIAAAREKGVNVVLTTGRPYAGVHSYLKELHMEQPGDYCITYNGALVQKAGDGSTVAQTALSYDDYRYLEKLSREVGSHFHALDRNTLYTANRDISYYTVHESYVATIPLVFCEAEKMDPNTQFLKVMMIDEPAVLDRAIARIPAEVKEKYTVLKSAPYFLEILDKRVNKGTGVKSLVEALGIKPEEVMAIGDQENDIAMIEYAGMGVAMDNAIPSVKEVANFVTKSNLEDGVAWAIEKFVLNPDHSSGHFPAR
modifications: Description of sequence: YidA
notes: recombinant Salmonella sugar-phosphate phosphatase of the HAD superfamily, overexpressed in E. coli SixPack cells; SUMO tag removed unless stated
- preference for Glc-1-P over Gal-1-P (initial velocity) [5]: ≥ 40 fold
